These results are taken from paper PMC7618510, “The accessory protein MRAP2 directly interacts with melanocortin-3 receptor to enhance signaling” (Science signaling, 2025).

In data set [1] the target is T1, HA-Halo-MC3R (melanocortin-3 receptor) (human, UniProt P41968 1-323, CA-Sulfo646 dye on the Halo tag (SiMPull)).
T1 construct: melanocortin-3 receptor (MC3R), human; S14 and the UBIRA repository (DOI 10.25500/edata.bham.00001385); also called ss-HA-Halo-MC3R; source: HEK293 (AD-293), transiently transfected, in lysate (LMNG-CHS) or in cells; not shown: HA, N-terminal, kept; Halo, N-terminal, kept
T1 sequence (P41968 whole entry): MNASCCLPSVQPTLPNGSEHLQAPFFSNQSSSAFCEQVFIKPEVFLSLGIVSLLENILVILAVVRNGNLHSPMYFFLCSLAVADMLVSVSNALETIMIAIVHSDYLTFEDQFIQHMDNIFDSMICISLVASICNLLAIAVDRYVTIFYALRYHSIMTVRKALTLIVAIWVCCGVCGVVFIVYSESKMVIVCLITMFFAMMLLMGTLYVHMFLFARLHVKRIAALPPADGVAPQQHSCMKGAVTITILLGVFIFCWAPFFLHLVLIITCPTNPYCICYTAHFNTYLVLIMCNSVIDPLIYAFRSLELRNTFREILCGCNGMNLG
Briefly: single-molecule pull-down (SiMPull) with photobleaching step counting; two colours: lysate of HEK293 cells cotransfected with 300 ng HA-Halo-tagged and 600 ng FLAG-CLIP-tagged plasmid, labelled at the surface with CA-Sulfo646 and BC-DY547, lysed in 0.5% LMNG/0.05% CHS; HA-tagged protein immobilised on HA antibody; co-localised spots and bleaching steps counted by TIRF. The note with it: partners not purified.

Data set [2] concerns the molecule itself. Briefly: single-molecule pull-down (SiMPull) with photobleaching step counting; one colour: HEK293 cells expressing the HA-Halo-tagged protein alone, labelled at the surface with membrane-impermeable CA-Sulfo646, lysed in 0.5% LMNG/0.05% CHS, immobilised by the HA tag on slides with biotinylated HA antibody, single molecules imaged by TIRF.

B1: FLAG-CLIP-MRAP2 (melanocortin-2 receptor accessory protein 2) (natural protein, human, UniProt Q96G30 1-205, looked up)
chain: MSAQRLISNRTSQQSASNSDYTWEYEYYEIGPVSFEGLKAHKYSIVIGFWVGLAVFVIFMFFVLTLLTKTGAPHQDNAESSEKRFRMNSFVSDFGRPLEPDKVFSRQGNEESRSLFHCYINEVERLDRAKACHQTTALDSDVQLQEAIRSSGQPEEELNRLMKFDIPNFVNTDQNYFGEDDLLISEPPIVLETKPLSQTSHKDLD
modifications: BC-DY547 (CLIP-surface 547) dye on the CLIP tag
notes: melanocortin-2 receptor accessory protein 2 (MRAP2), human; S14 and the UBIRA repository; also called ss-FLAG-CLIP-MRAP2; source: HEK293 (AD-293), transiently transfected, in lysate (LMNG-CHS); not shown: FLAG, N-terminal, kept; CLIP, N-terminal, kept
Turning to B1, the “stoichiometry N” value in data set [1] was 1 MRAP2 per MC3R.

B2: mGluR2 (receptor, UniProt P31421 19-872, looked up)
chain: EGPAKKVLTLEGDLVLGGLFPVHQKGGPAEECGPVNEHRGIQRLEAMLFALDRINRDPHLLPGVRLGAHILDSCSKDTHALEQALDFVRASLSRGADGSRHICPDGSYATHSDAPTAVTGVIGGSYSDVSIQVANLLRLFQIPQISYASTSAKLSDKSRYDYFARTVPPDFFQAKAMAEILRFFNWTYVSTVASEGDYGETGIEAFELEARARNICVATSEKVGRAMSRAAFEGVVRALLQKPSARVAVLFTRSEDARELLAATQRLNASFTWVASDGWGALESVVAGSERAAEGAITIELASYPISDFASYFQSLDPWNNSRNPWFREFWEERFHCSFRQRDCAAHSLRAVPFEQESKIMFVVNAVYAMAHALHNMHRALCPNTTHLCDAMRPVNGRRLYKDFVLNVKFDAPFRPADTDDEVRFDRFGDGIGRYNIFTYLRAGSGRYRYQKVGYWAEGLTLDTSFIPWASPSAGPLPASRCSEPCLQNEVKSVQPGEVCCWLCIPCQPYEYRLDEFTCADCGLGYWPNASLTGCFELPQEYIRWGDAWAVGPVTIACLGALATLFVLGVFVRHNATPVVKASGRELCYILLGGVFLCYCMTFVFIAKPSTAVCTLRRLGLGTAFSVCYSALLTKTNRIARIFGGAREGAQRPRFISPASQVAICLALISGQLLIVAAWLVVEAPGTGKETAPERREVVTLRCNHRDASMLGSLAYNVLLIALCTLYAFKTRKCPENFNEAKFIGFTMYTTCIIWLAFLPIFYVTSSDYRVQTTTMCVSVSLSGSVVLGCLFAPKLHIILFQPQKNVVSHRAPTSRFGSAAPRASANLGQGSGSQFVPTVCNGREVVDSTTSSL
notes: metabotropic glutamate receptor 2 (mGluR2); also called dimeric GPCR mGluR2
On to B2, for which the “stoichiometry N” value in data set [2] was 2.
